According to US20220135661A1 (University of Pennsylvania, published 2022):

Legend:
[1] = biological target: T1, recombinant human preformed α-Synuclein fibrils (human, UniProt P37840 1-140); test: cell-based or functional assay
[2] = biological target: recombinant mouse preformed α-Synuclein fibrils (mouse, UniProt O55042 1-140); test: cell-based or functional assay
[3] = biological target: human α-Synuclein (form not stated) (human, UniProt P37840 1-140); test: direct ELISA; human αSyn against mouse αSyn as reference
[4] = biological target: T1, recombinant human preformed α-Synuclein …; test: sandwich ELISA, mAb coated, MJF-R1 reporter; human PFFs against human monomer as reference
Experimental: FIG. 1A is a pair of graphs depicting the affinity of mAb Syn9063.26.22 for human monomeric (top) and fibrillar (PFF) (bottom) α-Syn measured by sandwich ELISA. 384-well plates were coated with 0.3 μg of the indicated mAb. After blocking, these were incubated with various concentrations of α-Syn monomer or PFFs (expressed as monomer equivalent concentration) as indicated. MJF-R1 was used as a reporter antibody to determine affinity for each form of α-Syn. FIG. 1B is a pair of graphs depicting the affinity of mAb Syn9048.04.07 for human monomeric (top) and fibrillar (PFF) (bottom) α-Syn measured by sandwich ELISA. 384-well plates were coated with 0.3 μg of the indicated mAb. After blocking, these were incubated with various concentrations of α-Syn monomer or PFFs (expressed as monomer equivalent concentration) as indicated. MJF-R1 was used as a reporter antibody to determine affinity for each form of α-Syn. FIG. 1C is a pair of graphs depicting the affinity of mAb Syn9068.13.01 for human monomeric (top) and fibrillar (PFF) (bottom) α-Syn measured by sandwich ELISA. […] After blocking, these were incubated with various concentrations of α-Syn monomer or PFFs (expressed as monomer equivalent concentration) as indicated. […]
The affinity of three mAbs from the 9000 series for human monomeric and fibrillar (PFF) α-Syn was measured by sandwich ELISA. […]

B1: Syn9048.04.07 (antibody, IgG1, V domains shown)
VH: QVQLQQSGPELVKPGASVRISCKASGYTFTTFYLHWVKQRPGQGLEWIGWIYPVNVKIKYSERFKGKATLTADKSSSTAYMQLGSLTSEDSAVYFCVRGGRGLDYWGQGTTLTVSS
VL: NIMMTQSPSSLAVSAGEKVTMSCKSSQSVLYSSNQKNYLAWYQQKPGQSPKMLIYWASFRESGVPDRFTGSGSGTDFTLTISSVQAEDLAVYYCHQYLSLFTFGSGTKLEIK
notes: also called mAb Syn9048.04.07; MHC992
[1]
  Inhibition in neuron assay (Hu PFFs): > 95%
[2]
  Inhibition in neuron assay (Ms PFFs): > 95%
[3]
  Recognition of Hu vs. Ms αSyn (fold): 1.4 fold
[4]
  Selective binding to PFFs (fold over monomer): 30 fold

B2: Syn9063.26.22 (antibody, IgG2b, V domains shown)
VH: QVQLKQSGPGLVQPSQSQSLTCTVSGFSLTSYGVHWVRQPLGKGLEWLGVIWSGGSTDYNAAFISRLSIRKDNSKSQVFFKMNSLQADDTAIYYCARTFTTSTSAWFAYWGQGTLVTVSA
VL: QIVLTQSPAIMSASPGEKVTMTCSASSSVSYMYWYQQKPGSSPRLLIYDTSKLASGVPVRFSGSGSGTSYSLTISRMEAEDAATYYCQQWRSYPPTFGAGTKLELK
notes: also called mAb Syn9063.26.22; MHC978
[1]
  Inhibition in neuron assay (Hu PFFs): 80%
[2]
  Inhibition in neuron assay (Ms PFFs): 50%
[3]
  Recognition of Hu vs. Ms αSyn (fold): 1.1 fold
[4]
  Selective binding to PFFs (fold over monomer): 100 fold

B3: Syn9068.13.01 (antibody, IgG1, V domains shown)
VH: EVHLVESGGGLVQPKGSLKLSCAASGFTFNTYAMHWVRQAPGKGLEWVARIRNKSNNYATYYADSVKDRFTISRDDSQSMLFLQMDNLKTEDTAIYYCVRGGLSPFDYWGQGTTLTVSS
VL: QIVLTQSPAIMSASPGEKVTMTCSASSSVTYMHWYQQKSGTSPKRWIYDTSKLASGVPARFSGSGSGTSYSLTISSMEAEDAATYYCQQWSSNPPTFGGGTKLEIR
notes: also called mAb Syn9068.13.01; MHC993
[1]
  Inhibition in neuron assay (Hu PFFs): 85%
[2]
  Inhibition in neuron assay (Ms PFFs): ~90%
[3]
  Recognition of Hu vs. Ms αSyn (fold): 1 fold
